Legend:
Assay in all cases: pulldown
Conditions in all cases: 20 nM protein, 1.5 uM RNA pool; 20 mM HEPES pH 7.8, 70 mM KCl, 10 mM NaCl, 10% glycerol, 2 mM DTT, 0.1 ug/uL BSA; 30 min, 4 C
[1] = target: T1, Smp_024140 (Schistosoma mansoni) (UniProt G4VQ61)
T1 sequence: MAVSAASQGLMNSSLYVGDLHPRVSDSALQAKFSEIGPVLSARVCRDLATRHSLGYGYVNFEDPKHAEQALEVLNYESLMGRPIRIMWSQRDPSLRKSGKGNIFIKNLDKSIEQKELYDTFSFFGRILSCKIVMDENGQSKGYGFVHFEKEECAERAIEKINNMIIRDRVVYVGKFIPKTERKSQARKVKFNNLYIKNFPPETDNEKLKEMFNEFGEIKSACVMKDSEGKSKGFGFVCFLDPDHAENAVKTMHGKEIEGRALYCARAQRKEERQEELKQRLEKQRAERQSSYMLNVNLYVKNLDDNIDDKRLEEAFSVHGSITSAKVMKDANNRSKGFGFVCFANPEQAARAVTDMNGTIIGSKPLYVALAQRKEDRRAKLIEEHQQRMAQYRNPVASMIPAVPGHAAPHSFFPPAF

[2] = target: T2, pabpc1A (Dictyostelium discoideum) (UniProt Q54BM2)
T2 sequence: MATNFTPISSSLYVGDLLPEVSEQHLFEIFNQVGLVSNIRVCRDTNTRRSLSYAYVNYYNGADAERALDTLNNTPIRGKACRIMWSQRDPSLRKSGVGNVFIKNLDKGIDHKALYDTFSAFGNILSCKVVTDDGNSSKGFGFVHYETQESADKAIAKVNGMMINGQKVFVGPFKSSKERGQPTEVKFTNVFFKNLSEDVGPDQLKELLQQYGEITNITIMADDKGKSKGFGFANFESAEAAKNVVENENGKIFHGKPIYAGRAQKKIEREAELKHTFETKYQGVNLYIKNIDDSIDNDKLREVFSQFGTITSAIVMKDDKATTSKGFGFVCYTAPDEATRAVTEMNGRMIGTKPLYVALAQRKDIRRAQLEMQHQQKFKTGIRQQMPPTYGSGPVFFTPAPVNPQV

[3] = target: pabpc4 (Xenopus tropicalis) (UniProt A0A8J0QFT8)
[4] = target: T3, TVAG_371220 (Trichomonas vaginalis) (UniProt A2FYE4)
T3 sequence: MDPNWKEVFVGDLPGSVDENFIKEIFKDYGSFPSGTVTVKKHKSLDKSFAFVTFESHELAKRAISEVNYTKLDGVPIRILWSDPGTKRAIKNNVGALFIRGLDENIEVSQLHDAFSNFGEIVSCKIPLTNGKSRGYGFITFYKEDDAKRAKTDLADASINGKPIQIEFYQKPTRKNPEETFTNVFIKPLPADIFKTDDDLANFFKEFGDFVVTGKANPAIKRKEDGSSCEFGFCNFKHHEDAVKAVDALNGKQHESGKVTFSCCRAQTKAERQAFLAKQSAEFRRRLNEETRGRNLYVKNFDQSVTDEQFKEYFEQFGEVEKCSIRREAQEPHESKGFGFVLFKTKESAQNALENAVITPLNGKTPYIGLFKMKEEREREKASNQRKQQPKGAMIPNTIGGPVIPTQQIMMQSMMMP

[5] = target: T4, grld-1 (Caenorhabditis elegans) (UniProt H2KYB8)
T4 sequence: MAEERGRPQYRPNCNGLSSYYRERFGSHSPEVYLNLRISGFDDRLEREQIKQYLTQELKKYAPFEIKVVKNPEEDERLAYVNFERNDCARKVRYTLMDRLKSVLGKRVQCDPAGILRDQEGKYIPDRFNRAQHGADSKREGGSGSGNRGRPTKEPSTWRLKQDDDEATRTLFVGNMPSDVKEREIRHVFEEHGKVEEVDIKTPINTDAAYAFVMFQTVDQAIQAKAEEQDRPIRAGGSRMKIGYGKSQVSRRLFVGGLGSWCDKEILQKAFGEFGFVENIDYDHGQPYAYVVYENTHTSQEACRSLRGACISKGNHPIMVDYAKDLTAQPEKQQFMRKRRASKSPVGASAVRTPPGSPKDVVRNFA

[6] = target: T5, snrpB2 (Dictyostelium discoideum) (UniProt Q54J05)
T5 sequence: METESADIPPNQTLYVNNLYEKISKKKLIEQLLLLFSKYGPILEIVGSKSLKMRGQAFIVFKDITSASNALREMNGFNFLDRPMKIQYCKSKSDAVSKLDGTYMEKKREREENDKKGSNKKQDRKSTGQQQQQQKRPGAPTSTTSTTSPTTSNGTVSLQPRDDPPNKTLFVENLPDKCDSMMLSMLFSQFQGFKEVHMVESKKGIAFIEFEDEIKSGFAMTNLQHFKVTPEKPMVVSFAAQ

[7] = target: T6, rnp-3 (Caenorhabditis elegans) (UniProt Q21323)
T6 sequence: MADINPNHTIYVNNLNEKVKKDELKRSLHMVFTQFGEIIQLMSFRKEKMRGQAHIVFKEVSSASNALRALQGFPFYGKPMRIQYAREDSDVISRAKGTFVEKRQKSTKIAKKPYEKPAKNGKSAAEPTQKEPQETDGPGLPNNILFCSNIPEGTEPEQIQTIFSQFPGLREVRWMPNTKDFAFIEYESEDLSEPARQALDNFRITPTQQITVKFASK

[8] = target: T7, rsp-3 (Caenorhabditis elegans) (UniProt Q9NEW6)
T7 sequence: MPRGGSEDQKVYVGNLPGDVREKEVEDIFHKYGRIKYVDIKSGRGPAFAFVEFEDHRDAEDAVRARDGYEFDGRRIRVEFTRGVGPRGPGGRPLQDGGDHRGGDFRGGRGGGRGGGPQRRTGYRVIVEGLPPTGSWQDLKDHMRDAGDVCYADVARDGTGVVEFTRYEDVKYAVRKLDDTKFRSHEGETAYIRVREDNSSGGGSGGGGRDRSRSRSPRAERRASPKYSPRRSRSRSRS

[9] = target: T8, Smp_006320 (Schistosoma mansoni) (UniProt G4VQQ6)
T8 sequence: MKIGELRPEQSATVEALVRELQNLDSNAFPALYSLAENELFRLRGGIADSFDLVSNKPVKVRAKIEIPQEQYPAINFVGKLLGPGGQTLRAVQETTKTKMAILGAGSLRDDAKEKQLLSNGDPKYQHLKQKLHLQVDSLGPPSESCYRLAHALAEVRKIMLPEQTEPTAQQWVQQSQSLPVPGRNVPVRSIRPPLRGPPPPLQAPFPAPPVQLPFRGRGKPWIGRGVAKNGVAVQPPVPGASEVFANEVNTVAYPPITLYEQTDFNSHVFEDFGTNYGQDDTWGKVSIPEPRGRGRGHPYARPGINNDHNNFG

Sequence of pabpc4 (Xenopus tropicalis) (A0A8J0QFT8 entry or part of it): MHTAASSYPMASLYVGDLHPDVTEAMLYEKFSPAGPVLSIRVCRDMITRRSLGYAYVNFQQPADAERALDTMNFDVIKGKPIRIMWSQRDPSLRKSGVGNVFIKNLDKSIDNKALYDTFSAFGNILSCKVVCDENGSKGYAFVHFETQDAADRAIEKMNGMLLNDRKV

AAAAAA [RNAcompete motif RNCMPT00501]
binding signal (z-score (mean of top ten 7-mers)) [1]: 8.02

AAAAAAA [RNAcompete motif RNCMPT00508]
binding signal (z-score (mean of top ten 7-mers)) [2]: 14.8

AAAAAAG [RNAcompete motif RNCMPT00511]
binding signal (z-score (mean of top ten 7-mers)) [3]: 13.4

AAAAAAG [RNAcompete motif RNCMPT00623]
binding signal (z-score (mean of top ten 7-mers)) [4]: 11.9

ACUACUA [RNAcompete motif RNCMPT00509]
binding signal (z-score (mean of top ten 7-mers)) [5]: 8.74

AGCAC [RNAcompete motif RNCMPT00507]
binding signal (z-score (mean of top ten 7-mers)) [6]: 12.9

AGCACGG [RNAcompete motif RNCMPT00510]
binding signal (z-score (mean of top ten 7-mers)) [7]: 14.1

AGGACGA [RNAcompete motif RNCMPT00503]
binding signal (z-score (mean of top ten 7-mers)) [8]: 7.55

AUAAAUA [RNAcompete motif RNCMPT00500]
binding signal (z-score (mean of top ten 7-mers)) [9]: 8.79

Source: publication PMC12990809
